The record followed here is patent US20230391872A1 (ANAPTYSBIO, published 2023).

Broadly, the EC50 (read off the curve) is the concentration that produces a half-maximal response. By Kd is commonly meant a measure of binding affinity in units of concentration. As usually defined, the koff is a measure of how fast the partners let go of each other. Broadly, the kon is the rate constant with which the complex forms.

For data set [1], the target named is cynomolgus monkey BTLA on cells (stably transfected 293c18 clone 1G5; cynomolgus peripheral blood T and B cells) (cynomolgus monkey). Briefly: flow cytometry dot plot, CD3 (PerCP Cy5.5) against BTLA (APC), lysed cynomolgus monkey whole blood, antibody at 33 nM. For orientation: In flow cytometry, cells or beads pass a laser one at a time.
Data set [2] deals with human BTLA on cells (stably transfected 293c18 cells; human peripheral blood T and B cells) (human) (UniProt Q7Z6A9). Briefly: flow cytometry (MFI) on gated CD8+ T cells of human PBMC, APC-labelled antibody [middle panel (Naive CD8+ T cells].
The target is the same in data set [3]. Briefly: flow cytometry (MFI) on gated CD4+ T cells of human PBMC, APC-labelled antibody [left panel (Naive CD4+ T cells].
Data set [4] has as its target T1, recombinant human BTLA monomer, hBTLA amino acids 31-155 followed by a 6-his tag (human, UniProt Q7Z6A9 31-155).
T1 construct: Antigen of the hydrogen-deuterium exchange experiments
T1 sequence: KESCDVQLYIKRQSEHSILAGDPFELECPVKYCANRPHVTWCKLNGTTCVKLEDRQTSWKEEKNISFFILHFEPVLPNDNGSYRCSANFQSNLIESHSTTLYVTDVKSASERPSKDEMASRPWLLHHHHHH
Nature of the data set: hydrogen-deuterium exchange with recombinant human BTLA monomer. As for the experimental part: Hydrogen-deuterium exchange mapping of the peptides on BTLA bound by the 6G3 and 10D8 antibodies disclosed herein was performed using recombinant human BTLA monomer. […] FIGS. 7A, 7B, and 7C show a ribbon model of the crystal structure of human BTLA extracellular domain (black) in complex with a space-filling model of the crystal structure of human HVEM extracellular binding domain (light gray) rendered in PyMOL from Protein Data Bank structure (Compaan et al., J. Biol Chem 280: 39553-39561 (2005)). FIG. 7A summarizes a hydrogen-deuterium exchange experiment using the 6G3 antibody (APE12839.05 (H Chain SEQ ID NO: 144, L Chain SEQ ID NO: 174)), FIG. 7B summarizes a hydrogen-deuterium exchange experiment using the 10D8 antibody (APE11482.06), and FIG. 7C summarizes a hydrogen-deuterium exchange experiment using a reference BTLA antagonist antibody (APE10693.17). For each experiment, the BTLA/antibody mixture or BTLA alone was deuterium labeled for 4, 10, or 60 minutes in order to see the exchange kinetics. After incubation, the BTLA protein was subjected to rapid enzymatic proteolysis at acidic pH and the incorporation of deuterium into resulting peptides quantified by liquid chromatography-mass spectrometry.

Data set [5] addresses T2, purified recombinant BTLA-ECD (Example 19).
T2 sequence (Q7Z6A9 31-157, species assumed, looked up): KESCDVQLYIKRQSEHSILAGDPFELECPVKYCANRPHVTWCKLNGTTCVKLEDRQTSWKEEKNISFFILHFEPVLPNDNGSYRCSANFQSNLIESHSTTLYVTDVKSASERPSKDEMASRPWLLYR

Data set [6] has as its target T3, human BTLA ECD-his (monomeric human BTLA-his) (human, UniProt Q7Z6A9 31-157).
T3 construct: extracellular domain; also called human BTLA extracellular domain
T3 sequence (looked up): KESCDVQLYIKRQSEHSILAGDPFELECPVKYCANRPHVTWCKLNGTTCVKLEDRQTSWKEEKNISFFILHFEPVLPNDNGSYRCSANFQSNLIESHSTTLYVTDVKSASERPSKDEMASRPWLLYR
Nature of the data set: SPR, Biacore T200, antibody captured on anti-human IgG, monomeric human BTLA-his as analyte, 25 °C, 1:1 model; 6G3 IgG1 (APE10585.04) captured on the chip; human BTLA-his analyte. How it is done: (§1) Surface plasmon resonance (SPR) analyses were carried out using a Biacore T200 (GE Healthcare Life Sciences). Kinetic constants were determined using a 1:1 binding model in the Biacore T200 Evaluation Software to calculate on- and off-rates (kₐ and kd, respectively), and dissociation constants as a measure of overall affinity (KD). Anti-human IgG (GE Healthcare Life Sciences) was immobilized on a CMS chip using EDC-activated amine coupling chemistry (420 seconds contact at a flow rate of 10 μl/min). Antibodies (APE10585.04 6G3 IgG1 and APE10840.05 6G3 IgG4), each at 0.5 μg/m1) were captured in a 60 second contact with the flow cell using a flow rate of 10 μl/min. Monomeric human BTLA-his or cynomolgus monkey BTLA-his at 60 nM, 20 nM, 6.7 nM and 2.2 nM concentrations was flowed over captured antibody (480 seconds association, 1800 seconds dissociation). Runs were at 25° C. and used buffer containing 10 mM HEPES, pH 7.6, 150 mM NaCl, 3 mM EDTA, 0.05% polysorbate 20 (HBS-EP+, pH 7.6; Teknova) for the mobile phase and all dilutions. At the end of each cycle, bound antigen was removed by regeneration with two successive exposures (60 seconds and 90 seconds) to 3 M MgCl2 (30 μl/min). Sensorgrams and binding constants corresponding to the experiment are shown in FIG. 1 (human BTLA) and FIG. 1 (cynomolgus monkey BTLA). […]
(In general: SPR reads the build-up and loss of mass on a sensor chip optically.)

Data set [7] deals with T4, cynomolgus monkey BTLA ECD-his (monomeric cynomolgus monkey BTLA-his) (cynomolgus monkey, UniProt A0A2K5W7M7 31-157).
T4 construct: extracellular domain; also called cynomolgus monkey BTLA extracellular domain
T4 sequence: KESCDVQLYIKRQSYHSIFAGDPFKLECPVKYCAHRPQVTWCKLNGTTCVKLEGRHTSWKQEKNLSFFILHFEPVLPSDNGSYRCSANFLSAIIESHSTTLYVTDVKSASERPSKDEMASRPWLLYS
Nature of the data set: SPR (Biacore T200), antibody captured on anti-human IgG chip, monomeric BTLA-his flowed at 60, 20, 6.7 and 2.2 nM, 1:1 binding model, 25 C [lower left panel (Cyno BTLA]. As for the experimental part: (§2) Surface plasmon resonance (SPR) analyses were carried out using a Biacore T200 (GE Healthcare Life Sciences). Kinetic constants were determined using a 1:1 binding model in the Biacore T200 Evaluation Software to calculate on- and off-rates (kₐ and kd, respectively), and dissociation constants as a measure of overall affinity (KD). Anti-human IgG (GE Healthcare Life Sciences) was immobilized on a CMS chip using EDC-activated amine coupling chemistry (420 seconds contact at a flow rate of 10 μl/min). Antibodies (APE10585.04 6G3 IgG1 and APE10840.05 6G3 IgG4), each at 0.5 μg/m1) were captured in a 60 second contact with the flow cell using a flow rate of 10 μl/min. Monomeric human BTLA-his or cynomolgus monkey BTLA-his at 60 nM, 20 nM, 6.7 nM and 2.2 nM concentrations was flowed over captured antibody (480 seconds association, 1800 seconds dissociation). Runs were at 25° C. and used buffer containing 10 mM HEPES, pH 7.6, 150 mM NaCl, 3 mM EDTA, 0.05% polysorbate 20 (HBS-EP+, pH 7.6; Teknova) for the mobile phase and all dilutions. At the end of each cycle, bound antigen was removed by regeneration with two successive exposures (60 seconds and 90 seconds) to 3 M MgCl2 (30 μl/min). Sensorgrams and binding constants corresponding to the experiment are shown in FIG. 1 (human BTLA) and FIG. 1 (cynomolgus monkey BTLA). Antibody capture levels in resonance units (RU) are listed at the right side of each panel.

In data set [8] the target is T3, human BTLA ECD-his (monomeric human …). Briefly: SPR (Biacore T200), antibody captured on anti-human IgG chip, monomeric BTLA-his flowed at 60, 20, 6.7 and 2.2 nM, 1:1 binding model, 25 C [upper left panel (Hu BTLA]. As for the experimental part:
as §2

Data set [9] concerns the target T4, cynomolgus monkey BTLA ECD-his …. Nature of the data set: SPR, Biacore T200, antibody captured on anti-human IgG, monomeric cynomolgus monkey BTLA-his as analyte, 25 °C, 1:1 model; 6G3 IgG1 (APE10585.04) captured on the chip; cynomolgus BTLA-his analyte. As for the experimental part: as §1

As to “APC-Mouse Anti-Human CD272 (BTLA) reference antibody, clone J168-540 (BD Biosciences)”, in [1], the Q8-2 (percent CD3+ BTLA+ cells) was 35.8%, the Q8-4 (percent CD3- BTLA+ cells) amounted to 28% and the Total BTLA (percent of gated cells BTLA-positive) was found to be 63.9%.
In the case of “reference anti-BTLA antibody MIH26 (APC-labeled, BioLegend)”, the EC50 (read off the curve) worked out at 3 nM in data set [2] and 2 nM in data set [3].

B1: 10D8 antibody (APE11482.06) (antibody, V domains shown)
VH: QVQLVQSGAEVKKPGASVKVSCKASGYTLTDYTIHWVRQAPGQRLEWMGWIYPGSGNTKYNDEFKVRVTITRDTSASTAYMELSSLRSEDTAVYYCARRNYYAMEYWGQGTTVTVSS
VL: DIQMTQSPSSLSASVGDRVTITCKASQNVFTNVAWFQQKPGKAPKPLIYSASYRYSGVPSRFSGSGSGTDFTLTISSLQPEDFATYYCQQYSTYPYTFGQGTKLEIKR
As to B1, the binding result in data set [4] was “binds”.

B2: purified recombinant Proteinase 3 (PR3) (protein)
chain: IVGGHEAQPHSRPYMASLQMRGNPGSHFCGGTLIHPSFVLTAAHCLRDIPQRLVNVVLGAHNVRTQEPTQQHFSVAQVFLNNYDAENKLNDVLLIQLSSPANLSASVATVQLPQQDQPVPHGTQCLAMGWGRVGAHDPPAQVLQELNVTVVTFFCRPHNICTFVPRRKAGICFGDSGGPLICDGIIQGIDSFVIWGCATRLFPDFFTRVALYVDWIRSTLR
With B2, the “proteolytic cleavage after co-incubation up to 60 minutes (gel lanes)” value in data set [5] was “soluble BLTA-ECD was cleaved into multiple smaller fragments”.

B3: 6G3 IgG1 anti-BTLA antibody (APE10585.04) (antibody, V domains shown)
VH: QVQLVQSGAEVKKPGSSVKVSCKASGYVFSTSWMNWVRQAPGQGLEWMGRIYPGDADTNYVGKFKGRVTITADKSTTTAYMELSSLRSEDTAVYFCAKSGTFNFGNYRWYFDVWGKGTTVTVSS
VL: AIQLTQSPSSLSASVGDRVTITCRVSENIYSHLAWYQQKPGKAPKLLIYAATNLALGVPSRFSGSGSGTDYTLTISSLQPEDFATYYCQLFWGPPLTFGGGTKVEIKR
notes: Same variable regions as 6G3 IgG4, in IgG1 format; also called APE10585.x; APE10585.04 6G3 IgG1
Turning to B3, the Kd in data set [6] was ~5 nM; in data set [7], 10.8 nM; in data set [8] it was 3.56 nM; in data set [9], ~11 nM. For the same molecule, the koff in data set [7] was 0.00295 s⁻¹; in data set [8], 0.000245 s⁻¹. Further, the on-rate (kon) was found to be 272000 M⁻¹ s⁻¹ in data set [7] and 68900 M⁻¹ s⁻¹ in data set [8].
